Data on 2 molecules can be found in patent US20230054956A1 (VANDERBILT UNIVERSITY, published 2023).

As usually defined, the EC50 is the concentration needed to bring the measured effect to its halfway point. Higher therefore signals lower potency in that assay.

Test [1] deals with GII.4 Houston 2002 (ABY27560.1) VLPs (human norovirus GII.4 Houston 2002, UniProt P54635 1-539). The test is described as follows: ELISA, VLP.
In test [2] the target is GII.4 Sydney 2012 virus-like particles (VLPs), based on strain AFV08795.1 (human norovirus GII.4 Sydney 2012, UniProt P54635 1-538, The particle is a multimeric assembly of VP1 with a little VP2 inside; one VP1 chain is given.). The test is described as follows: indirect ELISA, VLP coated. For orientation: ELISA stands for enzyme-linked immunosorbent assay.

B1: NORO-115 (antibody, V domains shown)
VH: QVQLVESGGGLVKPGGSLRLSCTASGITISGYYMSWIRQAPGKGLEWIVYINTSGRTIYYADSVKGRFSVSRDNAKESLYLQMDSLTVDDTGIYYCARDRLPASGSHWFHPWGQGTLVTVSS
VL: DIVMTQSPDSLAVSLGGRATINCKSSQSVLYTSDNKNYLAWYQQQPGQPPKLLISWASTRESGVPDRFSGSGSGTDFTLTISNLQAEDVAVYYCQQYYNSPLAFGGGTKVEIK
For the molecule B1, the “fold higher binding EC50 than to GII.4 Sydney 2012 VLPs” value in test [1] was greater than 10 fold. This molecule came in with an EC50 in test [2] of 0.1 µg/mL.

B2: NORO-329A (antibody, V domains shown)
VH: QVQLVESGGGLVKPGGSLRLSCAASGFTFSDYYMSWIRQAPGKGLEWISYISSSFGSTDYAGSMKGRFTISRDNAKNSLYLQMNSLRAEDTAVYYCARYNYYGSGSFVFDYWGQGTLVTVSS
VL: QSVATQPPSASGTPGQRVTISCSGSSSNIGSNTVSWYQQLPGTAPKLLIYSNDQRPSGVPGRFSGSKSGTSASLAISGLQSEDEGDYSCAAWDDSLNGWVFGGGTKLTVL
As to B2, in test [1], the “fold higher binding EC50 than to GII.4 Sydney 2012 VLPs” value is greater than 10 fold. The molecule also registered an EC50 in test [2] of 0.2 µg/mL.
